# Data: the NTF2 design screens of Basanta et al. (2020)
# Assay: protease stability score; higher = more stable; yeast display proteolysis, trypsin and chymotrypsin;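 note: log10 excess protease needed over predicted unfolded state with 0 meaning unfolded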
row,Sequence,protease stability score
1,DRELRQNLHEFWKQQETGNPDELRKMVDPNARIVIGDKTYSGMDNAAQRMAESNQELSVDIKRLDLQASNGRVTIKLDAVKNHNGQPSRKTVTQTIRIHNGRIKHISMREDG,-0.448
2,DREMLKDVKRLLEVINKGNEDEMRKMVDPNAKFVIGDKEITGREEFAKQMKRHKDEIRIDIKVKHLTAKGNRATVRATATRDHNGQPQSFKVTMRVTFSNGKVKKVHYDYTK,0.065
3,DREQAERLIRIMENERTGDPDKVVEMVDPNAKFKVGNTTYKGREELRKEVETRQKKARFEMSIQDYSVHGDTASIRYTLVINVNGQPHESTFNLEARFHNGKVRELHVKFDEQRMRDIQS,0.49
4,DREQQHVAREFLEAHNEGDEDRMVQLADPNARVHVGDKEVHGREELKKWVRDVEKKMNVQIDVRSIHAHNGKIRITARISFKINGEPRSDRIRFDFRAHNGTLKDFHLKVSEEQRKKKQQ,0.075
5,DRERLADELRRRLEKVMTTGDPTELDKLMDPNARILYGDQKFHGREHVKEFAKTLNDQYDHVTIRLVSYDIKNGEIHIVVDVVFRHNGQTRTKRINFVARVHGDKVKIESINIP,1.3
6,DRERQKKNLKDFVDALTKGDPDQVVKQFDKDARVRVGDKQVEGRDQIREFAKEWSKHVDRFRITEMRVHNGRLDIQAEQHHNGRKRRIQVEVNWHNGQIKNMQWTHG,1.4
7,DRERRHEFATEVVENLKQGDWKRLVEQADKDVTADIGDTKYKGRETFSKWAQQFVRRVDRVEIVDMRLDGDEVRINMDVKHNGQTRRSVFIARWHNGRIKHFRIETG,1.62
8,DREVIKLAKRMITALQKGDHQKFVNLLDPNVRIDVGDKEVHGQEEAQERLREETRQIRVDNHVKTIDDNNGRANFKMSVNAQVNGKPVHYEVNAVVHAHNGKARRLHIKVPEEDKRHLDR,0.034
9,DREVLKEFLKQFHEGNFHEVARMADPNAEVEVGDKTVEGREHLITLHKHIHDKADHASIHRVEIHNGRINVELTVNFNGTNVVYRFTLEAENGKLKNINYRARDSDQKRILKRLWG,0.091
10,DREVQEHIEQFWKVYRTGDEKRIVELLDPNVKFDYGDRTVEGRETVREEVKKHHDEQRVDFKSVDVKVTNGRIDVKVRAKYHHNGTPDEQKFTASASLNNGRVKHMSRQTSK,-0.181
11,DRHDMHKLEEIWKAIQTGDKDRVKELADPNAEFNVGDKTYHGMDQYITDLKKKRDQMRVHLELQSLDVKNGRARAVAVLRNEHNGTPDQRKFKVNATFRNGRLQHLKLQELS,0.021
12,DRHERKKVAKDFNEALETNDHEQLMEQMDPNARIKYGDKHYHGREDLRRFWKKLVDSVDHITVDKMQVRGEEVVVLAKAESNGRNETFRLVMEFHNGRIKFVRKDTP,0.132
13,DRKAEKLLEDLLDARRTNDEKKLQDLMDPNVKVDVGNKHYEGRERNAKSYAQEYKQMRLEIRVKSIHNNGNHVIQTFDADVRINGKPIRFRAQMMLHFHNGRVQHVYLRLDPSVEQHRRD,0.218
14,DRKAKEFAETLYDIFQRGNFENFLELIDKNVTVDVGDRTLHGRQAHEFAKEFQKEQLKVEVDDWHVDNQGEKVRITMTFVLHVNGRPQKQRQEQRFHLHNGRIKSLQVKTDE,-0.156
15,DRKLEEVFRKWLKAQKEGNPEVARKNADKDAKIVIGDTQIHGRDEMAEKVRHRKKHLQVDIKIKRMQIQGDKIKIKFEVVENHNGKPEKYKATAFARASDGNFKEMQVNKTG,0.12
16,DRKTEKDAIERARTALQDGDPQQAFDLFDENAKIVVGDQEYHGREQVSTAVEEFRKEIDHFEVERVSVHNGHATIDARVEHNGRSDDVTFHVTVHNGQVREAQVRTK,-0.213
17,DRNANKLATKVFTAYNRNNPKQLVENLDPNAELSYGDKEYHGRENMKKMVEDIKREMQLSIHIDHVDVHNGQARVEFVQENEHNGQPSRKHYVAHFDHENGRVKKLVFKESG,-0.106
18,DRNHVKEIAKEILKAMETNDEKRMSELMDKNVRLVYGDTEVHGRERVLTTIKHELESIDHVNFHDMSVDGDKIHVVYHVQKNGDRRQVEVRYVISNGKIQEVQINTR,0.623
19,DRNRRAEEFARTQLKAFKHGDEKLLRDLFDPNVHISVGDQTVHGRDEVARQEKDQATQVDHATRKIDRVEMNGDQVEVRARIRLNFNGQDRSTDVVYHATDDNGHIVVKSVRQG,0.017
20,DRQASEVARKILQAIRKGDPETMKELVDPNVNVTVGEKTFKGREEAARHFVERQKQIRVQVDSMEVSAHNGKVDARMKVLYNHNGRPVKMDVVVHFDMKNGKARRAEYRVDEEQRRRLET,0.082
21,DRQNKAQDLAEELRRAFHTNNEDQFKKLADKNARATVGEHTFHGSDEIRKVLKELVDNVDHLRVDIHSVSVHNGQINIDMKLILDHNGRKETQEVHIRAQDHNGQNKVRNITFG,-0.154
22,DRQVVRDAQTIFRLEKHGNENDVRRMADPNVDVNIGDKEIRGREEFAKSMRRKRDEIRVSLEIKNWTTTGDKANIDAKMQEEHNGRPSEKRVHIIVTATNGRMKSAHYHNTK,-0.006
23,DRRDLQLVERVLRALQTGDEDKVMENLDPNARVEYGDKEYHGREQLHEQIERDHRNMRFSIDVKRVDLHGDRAHFDATVTMNINGKPFEDRFHIDVVARNGRIKHLSMKMDPDRVKEVES,-0.157
24,DRREAHKRAQEMVDNFRDNDKDRIVELADKDVHARIGDKRLHGREELATFLVELARRADRVEVKSIHVQGEQIEMDMQMTVDGRERTFTLRMTYHNGKLKHLEIDPDDLRKIES,0.987
25,DRRETAKEVMKKISDILKENDENRLEDLMDPNAKVNVGDKRVHGRREAANQMVEEHTRYDHMDMDIRRIDVDGDKIIVIFTVTLTNNGKTDTKNVVIYFTVHNGRVQITRIRHK,-0.157

row,Sequence,protease stability score
1,DRRQEARDIQHDQNRALKHGDQESAQRLFDENARIKIGDRQWHGSDDVMTEVREQHKKVDSIRIHVVSIDVRGDQYDINVQYNLHYDGDNDTFRATQRLKKHNGSVRVVDQHEQ,-0.276
2,DRSQVESAMRKALHNDPREHEKMFDKDARIQIGDTTFTGQETVLRVIRQLLTKADHIQINDYEISGNKVRIDVQVEVNGRRVRVELDFTVSNGRIKHATWKARSEEELHRIKENLR,0.239
3,DRTAEKVLRQFLHAIRDNNPEQMVDLMDPNVTLEIGDKEITGRESAARTAKTRNDEQRMSLSDYRIDVKGDRITADIDQYNEHNGKPRRHQYILDVNIHNGKIKSLVYESDK,-0.029
4,DRTEILKHMFDDLAQVRRDGDPEKLNELMDEDVKARYGDKEYHGREDVARNIHRLASQADHVHIQLDRMSVDNGKARLEADVRIEHNGKVDEVRVEIRADVDNGRVNLREMIYR,0.839
5,DRTKTAKKVWDDFRSIMENNDPKEAEKLFDENAKADLGSKQVHGREQMVEMLRELAERVDHVEIRMKTVTDDNGQLNIEAEVRAEINGKQHTWRNQLNVVQQGDKRRIVSAKYG,-0.42
6,DSDAARELVKALNTGNEEELKHMVDPNARARVGDKRLHGRDELFRFWHKLKRHVDHRRVNKVEIHGEKAHVDVQLNVDGRNIRVNIVMEAHNGRVKEFTIEFRDRDARKEFRNQVD,1.16
7,DSDAARILVEFWTALQKGDHDRLKQNMDPNAKMKIGDHTLHGREQIAEHATKLKREMRIDIRLKSFDDDGDHAILKFEMRVDVNGKPFSMDVTVNVKAHNGHLVKVNFRIPEKDLQRLNS,0.633
8,DSDEIRKFFQQLHTNDEKKLRRNFDKDARFEVGDKDYHGQENAQEAMAQIFQRADHVTYKTVKVEGDKVDMNLQIQVNGKQFDLRLHAKFDNGRLKEASLHVTSEEQHTEVLEMLS,0.643
9,DSDEVRKFNEKVKTGNPKHLQDMFDENAKVQIGNKDFRGREHVQTVIDKIERDVDHKEIKRMEVKGDHFEIDAIYNINGHNIRMIIKIQVRNGKIQNMTVEFTNEEQQEIFEENVQ,0.423
10,DSDKIDNVVKTIMHDLRKGNPERVMKNADKDVKIVVGDKRYHGRETLETLMKEMVDQADHIQFHSVNIRGEKVVVVAVLQHNGVNVDVQFNMEIDNGRATKVELKVRNPEQQKKFDS,0.583
11,DSDKLRKSAKKFLDLQRTGNEDELKKMIDPNAKAVVGDKEYHGSTEIAHALARMRREVDHITLDRFQFKGNRLKANMTYQHNGRRDRFVVTVTMHNGRVSHITFKST,0.38
12,DSDLVRKMKKFEENRRTGNEHEVDKMIDPNAKLQVGDKTIHGRERQRDYMRELKNSARLDLKIDRVHDQPGRVVATFILKVNINGRPDTIRVKLVIQWHNGEIQRAELRVPEEWMDRFKQ,0.642
13,DSDQSKREMDKFLEMVSTGDPDEVNRLLDKDAHAHVGDQTYHGREEISHMWKELREKIDHLEVHDYKVNGNKLEVDMHATINGQNVVFTVVAVLRNGHFESVEVQYRSEEEEEKVKR,0.452
14,DSEAAKRAETFIRNLVQGNEDELRDMADKDVNFQVGDKTVHGREQWQEEVSRTEKEARVEMRVDDYRDEPGTVKLNAKVTIEYNGQPFTVNLHVEIHFKNGKMQRAVFEIDPEVQKEVES,0.692
15,DSEAEDLLRRILDAIRTNNREELHRQIDPNAHFEIGDREFKGMTQWATEIVRQAKEIRVDQSFHSISIRNGKLSARVEQVNETNGKPHSRQFKLRMKWHDGQVKFLSMEDDG,0.362
16,DSEAHELADTIMHALKHNNPDQLKEQFDPNVRVDIGNNRYHGREQFATEVIRTLREWRVEYKSFDQRNSGDKVDLRIRFVVNVNGRPHRYSVTVHLNFKDGRVKKMKVEMDPDQERKQTQ,0.914
17,DSEAQKIAEKLHEAWNTNNPNEAQHLMDPNAHVRVGDKEIDGMDQYVREMQRLLDKLRLEVKDWDVRAHNGNVTLRANARVDVNGQPQEYTYVIVMQVKNGRVKELHLHIDEEELRTLES,1.02
18,DSEDLVRKFITEWEQAVQQGDEKQLQELMDEDAHVSVGDTKLHGREDIARELAEQIRHADHVQFRIESLSVHGDHVNLNQKVRYKHNGKTDSSRYRLQAIAHGDKVTLKSFHDG,-0.28
19,DSEEAKKADEVVQTNDEDRLRDLLDEDARIIIGEFTFHGRHKAEEAVKRFQDAVDHIEIEDYDVQGNEITVVFTVSFNGKKMRFKASFHLRNGRLKHMSMTFTDPDQEREMSNLLR,0.56
20,DSEEEKTISEQLRTNNPDDAEKLVDENARIVVGDKVIDGRKDAHRFFKRLTEQIDHLQVDSLTVKNGRFSLDFRFNVNGRDLRMVMKVVVDNGKIQYMQLDARDHDIQEHMRDALR,0.967
21,DSEERHDFAHKVMEVFQQGDPDQMRDMADPNVRLHVGEKNVTGRDRVRTALTEFRQRVDHVQVDHVHVTGDKIVIHATVEINGRRRRVIIVARVRNGRIHEIEVDLK,1.61
22,DSEERKTVARELNKVLKENDEEKFKRLADENVKLHYGDKEFHGRERAEQVLREWKKRIDHLEVNHVNNTGDRIVIHATVNVNGVNVHLEFNARLDNGHVTSVRLQYRDEEDRKRLES,0.814
23,DSEKDKDWLRKLQSAVERNDPDSVMRLLDPNAEANYGDQTLHGREHIRKMFSELLKHADHVEVTDVRAHNGRLQLDVIMTINGRKSRYDLQFQFSNGRVKKVSVHSR,1.26
24,DSEKIKDVARQLVRQIEENNPDEIVKLLDPNARADYGDKRISGHEKIADELRKFHERADRIRVETVEVHNGRIVIDLHVNINGRMQRFHVFADLHNGKIKRIEFQTG,1.54
25,DSEKMHEINKALKTNDPDKLEQLMDKDVRAKVGDKTFHGREEVVKMWRDLYKQADHVNVDRVDVQGEKIDATVRADFNGTSVDYKVHISASNGRIKHITVTVTDEERHRQLQSVLG,1.31
